Drawing on article PMC9938351, this text covers Kd, dH and stoichiometry N for 2 substances.

Assay in all cases: ITC
Background: ITC needs no label: the signal is the heat of the interaction.

Test [1] deals with SARS-CoV-2 Ubl1 D110A (SARS-CoV-2).
Test [2] addresses SARS-CoV-2 Ubl1 Y103A (SARS-CoV-2).
Test [3] deals with SARS-CoV-2 ubiquitin-like domain 1 (Ubl1) of Nsp3 (residues 1–111) (SARS-CoV-2).
In test [4] the target is SARS-CoV-2 Ubl1 E95A (SARS-CoV-2).
Test [5] addresses SARS-CoV-2 Ubl1 E26A (SARS-CoV-2).

As to “SARS-CoV-2 N protein N-terminal domain (NTD, residues 47–174) (from UniProt P0DTC9 47-174) (domain or fragment)”, the Kd amounted to 50.8 µM in test [1]; 57.7 µM in test [2]; 17 µM in test [3]; 53.1 µM in test [4]; 78.6 µM in test [5]. The dH was -2.65 kcal/mol in test [1]; -0.741 kcal/mol in test [2]; -2.7 kcal/mol in test [3]; -1.24 kcal/mol in test [4]; -3.37 kcal/mol in test [5]. Moreover, the stoichiometry N stood at 0.64 in test [1]; 0.57 in test [2]; 0.73 in test [3]; 0.75 in test [4]; 0.74 in test [5].

On to “SARS-CoV-2 N-NTD R92A (from UniProt P0DTC9 47-174) (domain or fragment)”, for which, in test [3], the Kd was 55.7 µM, the dH is -3.18 kcal/mol and the stoichiometry N was 0.58.

As usually defined, the Kd is the concentration at which binding is half-saturated. Read a high Kd as weaker binding. What is called stoichiometry N is the number of molecules, sites or subunits per partner or assembly.
